The values that follow come from PMC4059916.

The assay concerns the target VARP451-640His6 Q509A (human) (UniProt Q96NW4). Briefly: ITC; Nano ITC; VARP constructs at 60 μM in the cell at 4°C, Rab constructs at 300 μM titrated, 24 injections of 2 μl; 50 mM HEPES pH 7.4, 200 mM NaCl, 5 mM MgCl2, 1 mM TCEP. (In general: ITC needs no label: the signal is the heat of the interaction.)

Sequence of VARP451-640His6 Q509A (human) (Q96NW4 451-640 Q509A): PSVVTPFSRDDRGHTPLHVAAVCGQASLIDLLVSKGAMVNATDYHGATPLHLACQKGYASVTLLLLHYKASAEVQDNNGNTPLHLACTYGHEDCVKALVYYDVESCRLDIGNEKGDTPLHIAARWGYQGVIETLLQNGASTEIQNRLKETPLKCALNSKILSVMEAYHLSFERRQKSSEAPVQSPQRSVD

Turning to “Rab32 1-225 (Q85L), GTP hydrolysis-defective mutant, GST removed (from UniProt Q13637 1-225) (enzyme)”, the Kd was 30 µM. This lies in the double-digit micromolar range.

The term Kd denotes the concentration at which binding is half-saturated. A lower Kd goes with tighter binding.
